Data as given in article PMC3285515.

Target: HSV-1 glycoprotein D (gD), wild type, on KOS/tk12 virions (HSV-1 (strain KOS)) (UniProt A1Z0Q5)
UniProt A1Z0Q5, sequence (A1Z0Q5 26-394): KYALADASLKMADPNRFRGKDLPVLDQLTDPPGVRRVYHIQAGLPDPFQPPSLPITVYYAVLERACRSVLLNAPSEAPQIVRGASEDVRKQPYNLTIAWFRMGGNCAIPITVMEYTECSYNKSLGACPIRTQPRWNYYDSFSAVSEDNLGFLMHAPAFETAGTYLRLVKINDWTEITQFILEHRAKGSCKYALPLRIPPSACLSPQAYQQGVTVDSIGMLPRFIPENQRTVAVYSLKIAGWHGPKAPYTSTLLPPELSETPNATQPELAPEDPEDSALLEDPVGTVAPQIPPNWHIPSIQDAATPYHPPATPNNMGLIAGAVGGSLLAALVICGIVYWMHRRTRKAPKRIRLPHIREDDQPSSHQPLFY

“sHA102, soluble HVEM (HveA) protein containing the first two cysteine-rich pseudorepeats (N-terminal 102 amino acids of HVEM) (domain or fragment)” was tested, and the sHA102-mediated KOS/tk12 infection of receptor-deficient CHO-K1 cells; sHA102 0-1,000 nM, MOI 3 and 9; ONPG assay and X-gal staining (percent of cells infected) (% of the cells infected) was 90 to 100.
